B1: GST-Cyt-TIVAMP (other)
chain: MAILFAVVARGTTILAKHAWCGGNFLEVTEQILAKIPSENNKLTYSHGNYLFHYICQDRIVYLCITDDDFERSRAFNFLNEIKKRFQTTYGSRAQTALPYAMNSEFSSVLAAQLKHHSENKGLDKVMETQAQVDELKGIMVRNIDLVAQRGERLELLIDKTENLVDSSVTFKTTSRNLARAMCMKNLK
notes: also called full cytoplasmic domain of TI-VAMP fused to GST; not shown: glutathione S-transferase (GST) tag encoded by the pGEX4T vector (Pharmacia)
B2: endogenous cellubrevin (rat brain) (other, UniProt P63025 1-103, looked up)
chain: MSTGVPSGSSAATGSNRRLQQTQNQVDEVVDIMRVNVDKVLERDQKLSELDDRADALQAGASQFETSAAKLKRKYWWKNCKMWAIGISVLVIIVIIIIVWCVS
notes: also called Cb

Assays:
6xhis-tagged SNAP25A = target: T1, 6xhis-tagged SNAP25A (UniProt P60881-2 1-206); test: overlay assay
T1 construct: also called 6xhisSNAP25; 6xhis-SNAP25; not shown: 6xhis tag
T1 sequence (P60881 other isoform, or with tags, fused parts or gaps limits assumed): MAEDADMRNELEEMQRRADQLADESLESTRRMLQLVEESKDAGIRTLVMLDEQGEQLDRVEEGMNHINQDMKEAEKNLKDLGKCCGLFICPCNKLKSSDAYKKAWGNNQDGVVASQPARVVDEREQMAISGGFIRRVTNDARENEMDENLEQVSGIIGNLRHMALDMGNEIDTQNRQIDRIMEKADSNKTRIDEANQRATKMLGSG
Protocol: The binding of GST, GST-Cyt-TIVAMP, GST-ter-TIVAMP, or GST-CC-TIVAMP was measured by overlay over immobilized 6xhis-SNAP25 (indicated by the arrow). GST-CC-TIVAMP bound efficiently to immobilized 6xhis-SNAP25. Little binding of GST-Cyt-TIVAMP and none of GST and GST-Nter-TIVAMP were observed.
Overlay assay: The corresponding GST fusion proteins and GST alone were produced and purified as previously described, 6xhis-tagged SNAP25A (6xhisSNAP25, bacterial strain is available from G. Schiavo, ICRF, London, UK) was purified. 6xhisSNAP25 was run on SDS-PAGE and western blotted onto Immobilon-P membrane (Millipore, Bedford, Mass.). The amount of 6xhisSNAP25 corresponds to 1.25 μg/mm of membrane, 4 mm strips of the membrane were cut and incubated in 150 mM NaCl, 5% non fat dry milk. 50 mM phosphate pH7.5 buffer for 1 hour at room temperature. The strips were then incubated with 10 nM the GST-fusion proteins overnight at 4° C. in buffer B (3% BSA, 0.1%, Tween20 20 mM Tris pH: 7.5) containing 1 mM DTT. The strips were rinsed three times in buffer B at room temperature, incubated with anti-GST antibodies in butfer B for 1 hour, rinsed in buffer B three times and incubated with alkaline phosphatase-coupled sheep anti-mouse antibodies. The detection as carried out simultaneously for all the strips, for the same time, using a kit from Promega (Madison, Wis.).

[1] = target: endogenous SNAP25 (rat brain extract; PC12 cells) (rat, UniProt P60881 1-206); test: co-immunoprecipitation with anti-SNAP25 from Triton X-100 extract of rat brain
Chain of endogenous SNAP25 (rat brain extract; PC12 cells) (P60881 whole entry): as the sequence (P60881 other isoform, or with tags, fused parts or gaps limits assumed) above, with D58E, V60I, N65D, H66Q, Q69K, K79T, C84F, F88C, I89V counted along it
Protocol: FIG. 4A illustrates that TI-VAMP forms a complex with SNAP25 in Triton X100 extract of rat brain. Immunoprecipitation with anti-SNAP25 antibodies was performed from Triton X100 soluble extract of rat brain as described in the Materials and Methods section of example 1 and immunoprecipitated proteins were detected by western blot analysis with the indicated antibodies (synaptobrevin 2, Sb2: cellubrevin, Cb: U, unbound, B: bound to anti-SNAP25 immunobeads). The bound fraction corresponded to a 65-fold enrichment compared to unbound. The SNAP25 TI-VAMP complex seemed more abundant than the SNAP25 synaptobrevin 2 one but this may only reflect a lower expression level of TI-VAMP compared to synaptobrevin 2 in the adult brain.
Immunoprecipitation: Immunoprecipitation from rat brain was performed using a Triton X-100 soluble membrane fraction prepared as follows: two adult rat brains were homogenized, with a glass teflon homogenizer (9 strokes at 900 rpm) in 25 ml of 0.32M sucrose containing a protease inhibitor cocktail. All the steps were carried out at 4° C. After 10 min centrifugation at 800 g the supernatant was centrifuged at 184000 g for 1 hour, obtaining a cytosolic and a membrane fraction in the supernatant and the pellet, respectively. […]

| Binder | binding result (6xhis-tagged SNAP25A) | binding result [1] |
| --- | --- | --- |
| B1 | binds |  |
| B2 |  | no binding |
